Laboratory results as given in doi:10.1101/2021.04.08.21254942.
pKd: −log10 of the molar value.

Biological target: TAMRA-labeled M9-NLS of hnRNPA2 WT peptide (human)
Test: fluorescence polarisation

With “Karyopherin-β2 WT (from UniProt Q92973 1-898) (receptor)” as the substance, how does the pKd read?
Its pKd is 7.02.
